Molecular target: T1, TAp63γ (UniProt Q9H3D4)
T1 sequence: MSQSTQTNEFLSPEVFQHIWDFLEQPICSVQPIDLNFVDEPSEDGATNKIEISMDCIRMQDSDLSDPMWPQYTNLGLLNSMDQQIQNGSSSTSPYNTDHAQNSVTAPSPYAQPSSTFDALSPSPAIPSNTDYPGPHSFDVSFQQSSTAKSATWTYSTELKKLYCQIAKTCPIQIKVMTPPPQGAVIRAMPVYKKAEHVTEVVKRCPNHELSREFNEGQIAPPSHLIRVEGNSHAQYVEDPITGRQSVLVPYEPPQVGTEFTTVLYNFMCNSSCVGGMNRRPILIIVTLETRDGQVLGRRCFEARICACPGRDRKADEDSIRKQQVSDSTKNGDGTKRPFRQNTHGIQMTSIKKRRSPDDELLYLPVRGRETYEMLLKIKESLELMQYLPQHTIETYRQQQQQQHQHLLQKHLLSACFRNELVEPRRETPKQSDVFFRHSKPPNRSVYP
Assay: cell_activity
Details: Saos-2 reporter, levels approaching 80% of p53

## PG-13 β-galactosidase reporter (multiple copies of minimal p53 binding sequence)
  activity: 80 % of p53

Reference: US6946256
